Measurements as given in publication PMC11310338.

Target: phosphorylated CTD peptide (pS2pS5) of RNAP2 labeled with an NH2 terminal FITC group
Experiment: fluorescence polarisation

Kd | Binder
622 nM | SCAF8-CID domain fragment comprising residues 1-139 (domain or fragment) MEAVKTFNSELYSLNDYKPPISKAKMTQITKAAIKAIKFYKHVVQSVEKFIQKCKPEYKVPGLYVIDSIVRQSRHQFGQEKDVFAPRFSNNIISTFQNLYRCPGDDKSKIVRVLNLWQKNNVFKSEIIQPLLDMAAGIP
366 nM | Human SCAF4-CID domain fragment comprising residues 1-139 (domain or fragment) MDAVNAFNQELFSLMDMKPPISRAKMILITKAAIKAIKLYKHVVQIVEKFIKKCKPEYKVPGLYVIDSIVRQSRHQFGTDKDVFGPRFSKNITATFQYLYLCPSEDKSKIVRVLNLWQKNGVFKIEIIQPLLDMAAGTS
